Test results as given in US20240132575A1 (MEMO THERAPEUTICS, published 2024).
Where two headings read alike, the source gives them in different places.

T1: BKV serotype III VP1 on BK pseudovirus (VP1-III) (BK virus serotype III, UniProt P14996 1-362)
T1 sequence: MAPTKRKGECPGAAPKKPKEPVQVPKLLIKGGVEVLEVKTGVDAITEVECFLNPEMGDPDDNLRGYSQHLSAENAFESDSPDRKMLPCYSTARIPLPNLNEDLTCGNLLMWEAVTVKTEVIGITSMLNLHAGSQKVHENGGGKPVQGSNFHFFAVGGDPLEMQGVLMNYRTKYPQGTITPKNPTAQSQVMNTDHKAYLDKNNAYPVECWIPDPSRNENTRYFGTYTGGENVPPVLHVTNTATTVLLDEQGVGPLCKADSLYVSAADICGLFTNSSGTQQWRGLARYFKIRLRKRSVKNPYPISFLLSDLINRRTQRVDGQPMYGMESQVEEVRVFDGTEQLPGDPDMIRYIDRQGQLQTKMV

T2: BKV serotype II VP1 on BK pseudovirus (VP1-II) (BK virus serotype II, UniProt P14996 1-362)
T2 chain: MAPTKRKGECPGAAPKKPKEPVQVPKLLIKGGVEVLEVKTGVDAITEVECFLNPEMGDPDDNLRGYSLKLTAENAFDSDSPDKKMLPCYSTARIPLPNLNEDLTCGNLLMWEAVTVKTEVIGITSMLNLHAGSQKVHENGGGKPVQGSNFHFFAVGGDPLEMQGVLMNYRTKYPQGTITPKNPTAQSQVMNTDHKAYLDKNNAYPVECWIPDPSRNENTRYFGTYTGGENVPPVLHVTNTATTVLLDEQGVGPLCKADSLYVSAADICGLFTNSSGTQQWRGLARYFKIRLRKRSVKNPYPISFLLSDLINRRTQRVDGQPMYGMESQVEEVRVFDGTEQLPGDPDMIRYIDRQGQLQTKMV

T3: BKV serotype Ia VP1 on BK pseudovirus (VP1-Ia) (BK virus serotype Ia, UniProt P03088 1-362)
T3 chain: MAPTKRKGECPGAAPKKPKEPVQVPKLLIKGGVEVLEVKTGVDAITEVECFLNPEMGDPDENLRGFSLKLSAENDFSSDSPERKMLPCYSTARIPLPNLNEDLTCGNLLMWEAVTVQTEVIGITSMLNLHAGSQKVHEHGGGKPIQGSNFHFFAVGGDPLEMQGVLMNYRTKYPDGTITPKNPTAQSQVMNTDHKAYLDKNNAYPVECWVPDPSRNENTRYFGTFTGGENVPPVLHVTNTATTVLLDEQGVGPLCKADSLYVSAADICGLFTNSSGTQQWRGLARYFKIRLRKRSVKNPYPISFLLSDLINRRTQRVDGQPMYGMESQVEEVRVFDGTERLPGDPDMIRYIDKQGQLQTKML

T4: BKV serotype Ib VP1 on BK pseudovirus (VP1-Ib) (BK virus serotype Ib, UniProt P03088 1-362)
T4 chain: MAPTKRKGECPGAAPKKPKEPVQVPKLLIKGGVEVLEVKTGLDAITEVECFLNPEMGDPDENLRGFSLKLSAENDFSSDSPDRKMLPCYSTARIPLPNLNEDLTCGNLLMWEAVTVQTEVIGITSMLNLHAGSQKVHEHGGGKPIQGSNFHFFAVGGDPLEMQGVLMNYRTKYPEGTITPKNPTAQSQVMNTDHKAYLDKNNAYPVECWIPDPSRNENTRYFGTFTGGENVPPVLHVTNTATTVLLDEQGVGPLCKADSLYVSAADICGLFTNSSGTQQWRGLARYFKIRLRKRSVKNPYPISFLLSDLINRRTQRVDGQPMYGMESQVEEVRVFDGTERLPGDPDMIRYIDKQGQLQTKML

T5: BKV serotype IV VP1 on BK pseudovirus (VP1-IVc) (BK virus serotype IV, UniProt P14996 1-362)
T5 chain: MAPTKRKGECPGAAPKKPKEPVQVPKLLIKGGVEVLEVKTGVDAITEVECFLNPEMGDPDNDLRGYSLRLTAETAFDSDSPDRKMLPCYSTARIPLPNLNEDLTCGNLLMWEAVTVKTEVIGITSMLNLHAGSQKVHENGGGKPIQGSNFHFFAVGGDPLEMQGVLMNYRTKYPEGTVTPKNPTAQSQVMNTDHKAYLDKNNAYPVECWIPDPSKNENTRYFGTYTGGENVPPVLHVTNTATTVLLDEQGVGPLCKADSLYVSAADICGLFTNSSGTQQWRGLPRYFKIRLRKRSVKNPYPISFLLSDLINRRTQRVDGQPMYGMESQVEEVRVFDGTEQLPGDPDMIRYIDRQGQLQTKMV

T6: BKV serotype IV VP1 pentamer (VP1-IV) (BK virus serotype IV, UniProt P14996 31-300)
T6 construct: also called BKV-VP1 serotype IV
T6 chain: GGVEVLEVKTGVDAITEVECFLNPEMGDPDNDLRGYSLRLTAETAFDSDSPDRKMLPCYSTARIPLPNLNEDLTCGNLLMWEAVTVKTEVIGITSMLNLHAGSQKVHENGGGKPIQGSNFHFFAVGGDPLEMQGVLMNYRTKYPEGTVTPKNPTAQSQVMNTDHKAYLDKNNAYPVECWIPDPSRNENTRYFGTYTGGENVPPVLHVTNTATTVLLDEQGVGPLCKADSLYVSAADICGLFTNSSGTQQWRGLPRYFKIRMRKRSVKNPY

T7: BKV serotype II VP1 pentamer (VP1-II) (BK virus serotype II, UniProt P14996 31-300)
T7 construct: VP1 pentamer construct; also called BKV-VP1 serotype II
T7 chain: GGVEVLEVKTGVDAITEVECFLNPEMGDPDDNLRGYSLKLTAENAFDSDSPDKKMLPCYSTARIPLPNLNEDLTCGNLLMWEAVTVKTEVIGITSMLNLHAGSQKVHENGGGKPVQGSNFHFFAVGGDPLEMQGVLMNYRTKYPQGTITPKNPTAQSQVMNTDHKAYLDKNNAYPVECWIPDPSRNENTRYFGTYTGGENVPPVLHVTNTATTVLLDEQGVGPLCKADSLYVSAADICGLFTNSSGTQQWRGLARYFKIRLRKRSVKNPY

T8: BKV serotype III VP1 pentamer (VP1-III) (BK virus serotype III, UniProt P14996 31-300)
T8 construct: also called BKV-VP1 serotype III
T8 sequence: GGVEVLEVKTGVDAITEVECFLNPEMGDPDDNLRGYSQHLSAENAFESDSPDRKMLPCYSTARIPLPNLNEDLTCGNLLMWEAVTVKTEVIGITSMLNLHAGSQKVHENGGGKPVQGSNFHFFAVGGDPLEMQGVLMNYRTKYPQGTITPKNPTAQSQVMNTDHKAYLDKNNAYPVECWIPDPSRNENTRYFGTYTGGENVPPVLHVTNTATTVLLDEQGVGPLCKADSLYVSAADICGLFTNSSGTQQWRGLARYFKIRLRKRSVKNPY

T9: BKV serotype I VP1 pentamer (VP1-I) (BK virus serotype I, UniProt P03088 31-300)
T9 construct: also called BKV-VP1 serotype I
T9 chain: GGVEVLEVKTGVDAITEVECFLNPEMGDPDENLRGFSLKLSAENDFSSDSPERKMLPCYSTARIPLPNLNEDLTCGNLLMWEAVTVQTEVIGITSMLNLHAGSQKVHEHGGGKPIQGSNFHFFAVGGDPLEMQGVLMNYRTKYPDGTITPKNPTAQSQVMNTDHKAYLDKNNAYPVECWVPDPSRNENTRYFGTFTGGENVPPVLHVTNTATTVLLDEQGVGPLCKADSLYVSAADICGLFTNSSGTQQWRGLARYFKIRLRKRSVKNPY

B1: antibody 336F07 (antibody, human IgG1, kappa, V domains shown)
VH: EEPLLESGGGLVQPGGSLRLSCAASGFTFRLYAMNWVRQAPGKGLEWVSLISGSGTATYYADSVTGRFSISRDNYKNRVYLQMDSLRADDTATYYCAKTYPTWGGVVIGAIDVWGQGTTVTVSS
VL: DIQMTQSPSTLSASVGDRVTITCRASQSIQRWLAWHQQKPGRAPKVLIHDASTLESGVPSRFSGSGSGTEFTLTISSLQPDDFATYYCQQYNGHASTFGPGTKVDIKR
notes: also called 336FC07
B2: comparative antibody P8D11 (WO 2017/046676) (antibody, human IgG1, lambda, V domains shown)
VH: QVQLVESGGTLVQPGGSLRLSCAASGFTFNNYWMTWVRQAPGKGLEWVANIKKDGSEKYYVDSVRGRFTISRDNAKNSLFLQMNSLRPEDTAVYFCATVRSGRYFALDDWGQGTLVTVSS
VL: QSVLTQPPSVSVAPGKTARITCGGDNIGSRPVHWYQQKPGQAPILVVYDDSNRPSGIPERFSGSNSGNTATLTISRVEAGDEADYYCQVWSSSTDHPFGGGTKVTVLG
notes: also called BM2
B3: antibody 319C07 (antibody, human IgG1, kappa, V domains shown)
VH: QVQLQQWGAGLLKPSETLSLTCAVYRGSFSAYYWTWFRQPPGKGLEWIGEINHRGYTNYNPSLRGRVSISVDTSKKQFSLKLRSVNAADTAVYYCATLRSTSGWHDYFDYWGQGTLVTVSS
VL: EIVLTQSPGTLSLSPGERATLSCRASQSVSSSYLAWYQQTPGQAPRLLIYGASSRATGIPDRFSGSGSGTDFTLTISRLEPEDFVVYFCLQYGSSPLTFGPGTKVDIKR
notes: also called 319C7

Assays:
[1] = biological target: T1, BKV serotype III VP1 on BK pseudovirus …; experiment: cell-based or functional assay
[2] = biological target: T2, BKV serotype II VP1 on BK pseudovirus …; experiment: cell-based or functional assay
[3] = biological target: T3, BKV serotype Ia VP1 on BK pseudovirus …; experiment: cell-based or functional assay
[4] = biological target: T4, BKV serotype Ib VP1 on BK pseudovirus …; experiment: cell-based or functional assay
[5] = biological target: T5, BKV serotype IV VP1 on BK pseudovirus …; experiment: cell-based or functional assay
JCV VP1 pentamer = biological target: T10, JCV VP1 pentamer (JC virus, UniProt P03089 23-292); experiment: ELISA on coated JCV-VP1 pentamer
T10 construct: also called JC-VP1; VP1 of the JC virus
T10 sequence (P03089 23-292 limits assumed): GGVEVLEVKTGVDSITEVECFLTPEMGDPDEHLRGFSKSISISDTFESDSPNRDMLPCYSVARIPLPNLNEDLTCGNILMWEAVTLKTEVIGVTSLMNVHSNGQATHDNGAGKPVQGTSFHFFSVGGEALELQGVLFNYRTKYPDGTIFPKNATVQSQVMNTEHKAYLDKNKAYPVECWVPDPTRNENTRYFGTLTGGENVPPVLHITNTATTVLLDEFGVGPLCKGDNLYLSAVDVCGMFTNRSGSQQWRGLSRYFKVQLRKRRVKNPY

[6] = biological target: T6, BKV serotype IV VP1 pentamer (VP1-IV); experiment: ELISA, VP1 pentamer coated, IgG titrated (EC50E)
Experimental: (§1) The binding of anti-BK virus antibodies to BKV-VP1 pentamers was analyzed by ELISA. […] Antibodies were serially diluted in PBS with 0.5% skim milk powder and added to the antigen-coated plates for 1.5 h. […] Plates were washed three times with PBS containing 0.05% Tween 20. The reaction was developed using 30 μl/well TMB liquid substrate (Sigma-Aldrich, #T0440) and stopped with 15 μl/well H₂SO₄. […] Data were fitted and apparent EC50 ELISA values (EC50E) were determined by three-parameter analysis in GraphPad Prism (GraphPad Software).

[7] = biological target: T7, BKV serotype II VP1 pentamer (VP1-II); experiment: ELISA, VP1 pentamer coated, IgG titrated (EC50E)
Experimental: as §1

[8] = biological target: T8, BKV serotype III VP1 pentamer (VP1-III); experiment: ELISA, VP1 pentamer coated, IgG titrated (EC50E)
Experimental: as §1

[9] = biological target: T1, BKV serotype III VP1 on BK pseudovirus …; experiment: cell-based or functional assay; remark: listed apart in the source
[10] = biological target: T2, BKV serotype II VP1 on BK pseudovirus …; experiment: cell-based or functional assay
[11] = biological target: T3, BKV serotype Ia VP1 on BK pseudovirus …; experiment: cell-based or functional assay
[12] = biological target: T4, BKV serotype Ib VP1 on BK pseudovirus …; experiment: cell-based or functional assay
[13] = biological target: T5, BKV serotype IV VP1 on BK pseudovirus …; experiment: cell-based or functional assay
[14] = biological target: T9, BKV serotype I VP1 pentamer (VP1-I); experiment: ELISA, VP1 pentamer coated, IgG titrated (EC50E)
Experimental: as §1

[15] = biological target: T7, BKV serotype II VP1 pentamer (VP1-II); experiment: ELISA, VP1 pentamer coated, IgG titrated (EC50E)
Experimental: as §1

[16] = biological target: T8, BKV serotype III VP1 pentamer (VP1-III); experiment: ELISA, VP1 pentamer coated, IgG titrated (EC50E); remark: listed apart in the source
Experimental: as §1

| Binder | IC50 (nM), neutralization of BK-Pseudovirus (NanoLuc luciferase, 293TT cells) [1] [nM] | IC50 (nM), neutralization of BK-Pseudovirus (NanoLuc luciferase, 293TT cells) [2] [nM] | IC50 (nM), neutralization of BK-Pseudovirus (NanoLuc luciferase, 293TT cells) [3] [nM] | IC50 (nM), neutralization of BK-Pseudovirus (NanoLuc luciferase, 293TT cells) [4] [nM] | IC50 (nM), neutralization of BK-Pseudovirus (NanoLuc luciferase, 293TT cells) [5] [nM] | binding result (JCV VP1 pentamer) | EC50 [6] [nM] | EC50 [7] [nM] | EC50 [8] [nM] | IC50 (nM), neutralization of BK-Pseudovirus (NanoLuc luciferase, 293TT cells) [9] [nM] | IC50 (nM), neutralization of BK-Pseudovirus (NanoLuc luciferase, 293TT cells) [10] [nM] | IC50 (nM), neutralization of BK-Pseudovirus (NanoLuc luciferase, 293TT cells) [11] [nM] | IC50 (nM), neutralization of BK-Pseudovirus (NanoLuc luciferase, 293TT cells) [12] [nM] | IC50 (nM), neutralization of BK-Pseudovirus (NanoLuc luciferase, 293TT cells) [13] [nM] | EC50 [14] [nM] | EC50 [15] [nM] | EC50 [16] [nM] |
| --- | --- | --- | --- | --- | --- | --- | --- | --- | --- | --- | --- | --- | --- | --- | --- | --- | --- |
| B1 | 0.019 | 0.02 | 0.094 | 0.103 | 0.018 | no binding | 0.03 | 0.03 | 0.02 |  |  |  |  |  |  |  |  |
| B2 | 0.176 | 0.565 | 0.391 | 0.392 | 2.91 | binds |  |  |  | 0.176 | 0.565 | 0.391 | 0.392 | 2.91 |  |  |  |
| B3 |  |  |  |  |  | no binding |  |  |  | 0.058 | 0.01 | 0.007 | 0.007 | 0.032 | 0.05 | 0.06 | 0.06 |
